Patent US8337851B2, “Methods of monitoring the efficacy of anti-CD40 antibodies in treating a subject for a CD40-expressing cancer” (Novartis AG, priority 2005, dated 2012)
“Also recorded” adds a separate entry of the source.

Assays:
[1] = system: B-CLL cells from patients; assay: PI3K and MEK inhibitors on CD40L signaling and survival in B-CLL cells; format: cell-based, human
Procedure: A PI3K inhibitor (LY294002; Sigma, St. Louis, Mo.) and MEK inhibitor (PD98595; Cell Signaling Technology, Beverly, Mass.) were used to dissect the pathways required for CLL cell survival. In these experiments, 1.0×10^6 B-CLL cells from patients were serum starved in 1% FBS containing media for 4 hours. Serum-starved cells were then pretreated with LY294002 (PI3K inhibitor, 30 μM) or PD98595 (MEK inhibitor, 10 μM). Cell lysates were then collected before and 20 minutes after CD40L stimulation. Western blot analysis with antibodies to p-IKK α/β, p-ERK, p-Akt was conducted, and equal loading was evaluated by probing antibodies to total ERK and β-actin.

B-CLL cells [2] = assay: p38 MAPK signaling in B-CLL cells, four-hour experiment; format: cell-based, human; settings: 4 hours; SB203580 30 and 60 μM, CHIR-12.12 10 μg/mL
Procedure: In the four-hour experiment, approximately 0.8×10^6 B-CLL cells per well were serum starved in 1% FBS-containing media for 4 hours. […] Cell lysates were collected before and 20 minutes after CD40L stimulation. Western blot analysis with antibodies against specific proteins shown were conducted, and equal loading was evaluated by probing with antibodies to total p38 (t-p38) and β-actin.

B-CLL cells [3] = assay: p38 MAPK signaling and survival in B-CLL cells, 24-hour experiment; format: cell-based, human
Procedure: In the 24-hour experiment, approximately 0.8×10^6 B-CLL cells per well were placed in full serum (10% FBS)-containing media for 24 hours. […] Western blot analysis with antibodies against specific proteins shown was conducted, and equal loading was evaluated by probing with antibodies against β-actin.

KMS-12-BM tumor = assay: Human KMS-12-BM subcutaneous xenograft model; format: in vivo, SCID mice; settings: 1 mg/kg i.v. twice a week for two weeks (maximal tolerated dose); P>0.05
Procedure: Female SCID mice were treated with 3Gy irradiation one day prior to implantation of tumor cells. On the day of implantation, cells were prepared at a concentration of 5×10^7 cells/ml in 50% matrigel. Cells were implanted subcutaneously over the right flank at 5×10^6 cells/100 μl/mouse. […] Antibodies were administered intraperitoneally once a week for 4 weeks. Bortezomib was administered intravenously twice a week for two weeks.

[4] = system: IM-9 tumor cells (a human multiple myeloma cell line); assay: IM-9 multiple myeloma subcutaneous xenograft model; format: in vivo, SCID mice
Procedure: SCID mice were inoculated subcutaneously with IM-9 tumor cells (a human multiple myeloma cell line expressing both CD40 and CD20) in 50% […]™ at 5×10^6 cells per mouse. […] Alternatively, bortezomib dosing at 1 mg/kg intravenously occurred on days 5, 8, 12, and 15 after tumor implantation. […] Antibody dosing occurred on days 8, 14, and 21 post tumor implantation, while bortezomib dosing occurred on days 8, 11, 14 and 18 post tumor implantation. […] Data were analyzed using the log-rank test.

soluble CD40 = soluble CD40 (Homo sapiens, UniProt P25942); assay: ELISA-type binding to soluble CD40; settings: ELISA-type assays
Chain of soluble CD40 (P25942 21-193 limits assumed): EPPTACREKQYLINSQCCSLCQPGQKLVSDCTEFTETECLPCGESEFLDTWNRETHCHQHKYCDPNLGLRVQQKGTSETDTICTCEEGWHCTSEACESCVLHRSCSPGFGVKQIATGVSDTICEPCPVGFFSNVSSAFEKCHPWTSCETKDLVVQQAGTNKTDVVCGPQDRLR
Source text: (§1) 2, 2000, and PCT International Application No. PCT/US01/30857, also titled “Human Anti-CD40 Antibodies,” filed Oct. 2, 2001, both of which are herein incorporated by reference in their entirety.

[5] = system: B cells from normal human subjects; assay: In vitro CD40 ligand-mediated proliferation of normal B cells; format: cell-based
Source text: as §1
(§2) 4, 2003, Nov. 26, 2003, and Apr. 27, 2004, and assigned U.S. Patent Application Nos. 60/517,337, 60/525,579, and 60/565,710, respectively, and International Patent Application No. PCT/US2004/037152, also entitled “Antagonist, Anti-CD40 Monoclonal Antibodies and Methods for Their Use,” filed Nov. 4, 2004; the contents of each of which are herein incorporated by reference in their entirety.

[6] = system: primary cancer cells from NHL patients; assay: ADCC against primary cancer cells; format: cell-based, human; settings: in vitro
Source text: as §2

[7] = system: cancer cells from NHL and CLL patients; assay: In vitro CD40 ligand-mediated proliferation of patient cancer cells; format: cell-based, human
Source text: as §2

cell-surface CD40 = cell-surface CD40 (Homo sapiens, UniProt P25942); assay: Flow cytometric CD40-ligand binding blockade and displacement; settings: flow cytometric assays / FACS
Chain of cell-surface CD40 (P25942 21-277): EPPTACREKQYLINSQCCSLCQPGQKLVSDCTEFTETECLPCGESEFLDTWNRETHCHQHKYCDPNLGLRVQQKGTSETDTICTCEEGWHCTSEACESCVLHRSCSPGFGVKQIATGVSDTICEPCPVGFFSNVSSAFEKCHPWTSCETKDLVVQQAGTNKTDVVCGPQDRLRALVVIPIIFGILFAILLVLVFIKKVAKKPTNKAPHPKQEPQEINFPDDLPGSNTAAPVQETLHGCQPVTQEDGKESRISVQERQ
Source text: as §1, §2

[8] = system: human lymphocytes from normal subjects; assay: Proliferation of human lymphocytes; format: cell-based; settings: antibody alone
[9] = system: CD40-expressing target cells; assay: ADCC activity of anti-CD40 antibodies (Table 1); format: cell-based
B-CLL cells [10] = assay: cPARP flow cytometry of CLL patient PBMCs; format: cell-based, human; settings: 24 hours
Procedure: [formula] cPARP analysis by flow cytometry was performed after 24 hours in culture. Cells were treated with FACSLysis buffer (BD Biosciences) and frozen. After fixation in 1% formaldehyde for 45 min, cells were washed and incubated with PE-conjugated mouse anti-human CD19 for 30 min at room temperature (RT). Cells were then permeabilized using 70% ethanol on ice for 30 min and stained for 30 min at RT with rabbit anti-human cPARP antibody or isotype control rabbit IgG along with PerCP-Cy5.5-labeled mouse anti-human CD5. This was followed by incubation with goat anti-rabbit IgG-AlexaFluor 647 for 30 min at RT before fixing with 1% formaldehyde and analyzing by flow cytometry. Percent blockade was calculated as follows: […]

B-CLL cells [11] = assay: CellTiter-Glo viability of CLL patient PBMCs; format: cell-based, human; settings: 72 hours, 2 μg/ml rhsCD40L + 4 μg/ml enhancer
Procedure: Cell viability was determined after 72 hours using the CellTiter-Glo® Luminescent Cell Viability Kit (Promega, Madison, Wis.), which measures cellular ATP, and expressed as Relative Luminescence Units (RLU). Percent blockade was calculated as follows: […]

normal B cells = assay: CD40L-induced cytokine secretion from normal B cells (Meso Scale Discovery); format: cell-based, human; settings: 24 hours
Procedure: (§3) Cells (1×10^5 cells per well) were cultured in a 96-well plate in the presence or absence of CD40L (CD40 transfected, formaldehyde fixed CHO cells, 2×10^5 per well). […] Production of hIL-6, hIL-8, hIL-10, hTNF-α, hGM-CSF, hIL-1b, hIL-12p70, MCP-1, and MIP-1β was measured by Meso Scale Discovery® multi-array system (Meso Scale Discovery, Gaithersburg, Md.).

CLL cells = assay: CD40L-induced cytokine secretion by CLL cells (Meso Scale Discovery); format: cell-based, human; settings: CLL #1; 24 hours
Procedure: as §3

## COc1cccc(-c2cc(=O)c3ccccc3o2)c1N [PD98595]
[1]; LY294002 30 μM or PD98595 10 μM
  IKK/NFkB activation: no change of IKK/NFkB activation
[1]; LY294002 or PD98595, FIG. 9
  survival mediated by CD40L (cleaved PARP, caspase-3, Bcl-xl): no change of survival mediated by CD40L
[1]; PD98595 10 μM, 20 minutes after CD40L
  activation of ERK induced by CD40L: inhibited activation of ERK

## C[S+]([O-])c1ccc(-c2nc(-c3ccncc3)c(-c3ccc(F)cc3)[nH]2)cc1 (stereo not shown) [SB203580, reference compound]
B-CLL cells [2]
  p38 activation by CD40L: slightly inhibited
B-CLL cells [3]; CD40L
  cleaved Caspase-3: induced to a lesser extent
  p38 phosphorylation: similarly blocked
B-CLL cells [3]; SB203580 30 and 60 μM, CHIR-12.12 10 μg/mL, CD40L
  cleaved-PARP: significantly induced
B-CLL cells [3]; especially 60 μM SB203580 and 10 μg/ml CHIR-12.12
  Bcl-xl expression: blocked

## CC(C)C[C@H](NC(=O)[C@H](Cc1ccccc1)NC(=O)c1cnccn1)B(O)O [bortezomib, reference compound]
KMS-12-BM tumor
  tumor volume reduction: 22%
[4]; first study, CHIR-12.12 1 and 10 mg/kg i.p. days 5, 12, 18, bortezomib 1 mg/kg i.v. days 5, 8, 12, 15
  tumor growth: inhibited tumor growth at 15, 18, and 21 days post tumor implantation
[4]; second study, bortezomib 1 mg/kg i.v. days 8, 11, 14, 18
  tumor growth: did not display statistically significant growth inhibition

## CHIR-5.9: fully human anti-CD40 monoclonal antibody of the IgG1 isotype from hybridoma cell line 131.2F8.5.9 (ATCC PTA-5542)
Soluble CD40
  binding to soluble CD40: bind soluble CD40
[5]
  effect on proliferation of normal B cells: act as antagonist anti-CD40 antibodies; also recorded: inhibit in vitro CD40 ligand-mediated proliferation of normal B cells
[6]
  killing of primary cancer cells by ADCC: kill primary cancer cells from NHL patients by ADCC
[7]
  effect on CD40 ligand-mediated proliferation of cancer cells: inhibiting in vitro CD40 ligand-mediated proliferation of cancer cells from NHL and CLL patients
cell-surface CD40
  displacement of pre-bound CD40-ligand: displace the pre-bound CD40-ligand; also recorded: can compete off CD40-ligand pre-bound to cell surface CD40
  prevention of CD40-ligand binding to cell-surface CD40: prevent the binding of CD40-ligand to cell-surface CD40; also recorded: can prevent CD40-ligand binding
[8]
  induction of lymphocyte proliferation (agonist activity): do not induce strong proliferation of human lymphocytes from normal subjects
[9]
  killing of CD40-expressing target cells by ADCC: able to kill CD40-expressing target cells

B1: CD40L: CD40 ligand used as stimulus: transfected formaldehyde fixed CHO cells (Example 4) or recombinant human soluble CD40L (Example 7) (protein)
chain: MIETYNQTSPRSAATGLPISMKIFMYLLTVFLITQMIGSALFAVYLHRRLDKIEDERNLHEDFVFMKTIQRCNTGERSLSLLNCEEIKSQFEGFVKDIMLNKEETKKENSFEMQKGDQNPQIAAHVISEASSKTTSVLQWAEKGYYTMSNNLVTLENGKQLTVKRQGLYYIYAQVTFCSNREASSQAPFIASLCLKSPGRFERILLRAANTHSSAKPCGQQSIHLGGVFELQPGASVFVNVTDPSQVSHGTGFTSFGLLKL
B-CLL cells [10]
  samples in which CD40L promoted survival of B-CLL cells: 6/7
B-CLL cells [11]
  samples in which CD40L promoted survival of B-CLL cells: 7/7
Normal B cells; Donor 1
  MCP-1 secretion: 5.5 folds of induction over background
  MIP-1β secretion: 2.2 folds of induction over background
  hGM-CSF secretion: no induction
  hIL-1b secretion: no induction
  hIL-6 secretion: 5.7 folds of induction over background
  hIL-8 secretion: 7.7 folds of induction over background
  hIL-10 secretion: 3.6 folds of induction over background
  hIL-12p70 secretion: no induction
  hTNF-α secretion: 3.7 folds of induction over background
Normal B cells; Donor 2
  MIP-1β secretion: 2.6 folds of induction over background
  hIL-1b secretion: no induction
  hIL-6 secretion: 3.8 folds of induction over background
  hIL-8 secretion: 14.7 folds of induction over background
  hTNF-α secretion: 4.8 folds of induction over background
Normal B cells; Donor 3
  MCP-1 secretion: 1.7 folds of induction over background
  MIP-1β secretion: 17.8 folds of induction over background
  hGM-CSF secretion: no induction
  hIL-1b secretion: no induction
  hIL-6 secretion: 20.5 folds of induction over background
  hIL-8 secretion: 49.3 folds of induction over background
  hIL-10 secretion: 3.6 folds of induction over background
  hIL-12p70 secretion: no induction
  hTNF-α secretion: 22.8 folds of induction over background
CLL cells
  MCP-1 secretion: 5.5 folds of induction over background
  MIP-1β secretion: no induction
  hGM-CSF secretion: 7.6 folds of induction over background
  hIL-1b secretion: no induction
  hIL-6 secretion: no induction
  hIL-8 secretion: 4.0 folds of induction over background
  hIL-10 secretion: 9.2 folds of induction over background
  hTNF-α secretion: 3.3 folds of induction over background
